± gives the standard deviation of the averaged measurements.
System: ATP
Assay: switch fluorescence ratio, 500 uM ATP over buffer (Cy3 cluster intensity, sum of 5 cycles each) (fold (ratio)); higher = stronger signal-on switching upon ATP binding; sequences stand for … in TCGTCGGCAGCGTCAGATGTGTATAAGAGACAGTTTTTTTTTTTTTTTTTTTTTTTTT…TC
Conditions: aptamer strand: ATP DNA aptamer (quencher-CACCTGGGGGAGTATTGCGGAGGAAGG + anchor), 100 nM annealed; ATP concentration: 500 uM
Procedure, shortened: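 Values give the fluorescence ratio for each switch-domain sequence, averaged from per-cluster ratios of summed target-cycle to summed buffer-cycle Cy3 intensity. The Cy3-labelled switching-strand clusters sat on a modified Illumina MiSeq flow-cell, were annealed to 100 nM quencher-labelled ATP aptamer, and were imaged in selection buffer, then after 15 min with 500 uM ATP at 22 °C. Five cycles ran with NaOH stripping and re-annealing between them, and clusters outside 100-1000 RFU were excluded.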
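Further: ATP exposure 15 min at 22 °C before imaging.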

Sequence | switch fluorescence ratio
GAATAGGTAT | 0.99505 ± 0.00011
GAATATCTGG | 0.97 ± 0.011
GAATATGTAG | 0.965 ± 0.044
GAATATTCGC | 0.9958 ± 0.0032
GAATCAGGGA | 1.02 ± 0.015
GAATCATATG | 0.977 ± 0.011
GAATCATTTT | 1.02 ± 0.036
GAATCGGGGG | 0.979 ± 0.044
GAATGACCCG | 1.11 ± 0.012
GAATGCGGAA | 1.0339 ± 0.00078
GAATGGATGT | 1 ± 0.012
GAATGGCGTA | 1.02 ± 0.046
GAATGGGATA | 1.04 ± 0.084
GAATGGTATA | 0.9925 ± 0.0035
GAATTACTAT | 1.038 ± 0.0087
GAATTATCTA | 0.996 ± 0.022
GAATTCAGGT | 0.994 ± 0.011
GAATTCCAGT | 0.9968 ± 0.0076
GAATTCGGAA | 1.0486 ± 0.00049
GAATTCGGAC | 1.04 ± 0.016
GAATTTATGG | 0.985 ± 0.023
GAATTTATTT | 0.999 ± 0.025
GAATTTGATT | 1.02 ± 0.025
GACAAAAGGT | 1.03 ± 0.013
GACAAACCGC | 1.18 ± 0.032

Sequence | switch fluorescence ratio
GACAAATGTG | 0.99815 ± 0.00093
GACAAGGGGG | 0.981 ± 0.065
GACACAAAAG | 1.069 ± 0.0023
GACACGGGCG | 1.044 ± 0.0035
GACACTTGGA | 1.03 ± 0.014
GACAGAGGGC | 0.96 ± 0.062
GACAGATGGT | 1.01 ± 0.019
GACAGGGGAG | 1 ± 0.018
GACAGTCAAA | 1.01 ± 0.04
GACATAGCGG | 1.07 ± 0.03
GACATATGGG | 0.967 ± 0.035
GACATGGGAT | 1.01 ± 0.037
GACATTAAGG | 1.01 ± 0.084
GACATTTCGT | 0.992 ± 0.019
GACCATACGC | 1.42 ± 0.055
GACCATTGGA | 1.006 ± 0.0011
GACCATTTGT | 0.995 ± 0.033
GACCATTTTT | 1.02 ± 0.038
GACCCGCTTG | 1.06 ± 0.013
GACCCGGGTG | 2.98 ± 0.18
GACCCGGGTT | 1.11 ± 0.15
GACCCGTCCA | 0.995 ± 0.024
GACCCTAAC | 1.14 ± 0.016
GACCCTGGGT | 1.06 ± 0.033
GACCGAAAGT | 0.998 ± 0.01

Sequence | switch fluorescence ratio
GACCGAGCGT | 1.1 ± 0.06
GACCGGCGTC | 1.02 ± 0.017
GACCGGGCCC | 1.01 ± 0.015
GACGAAAATC | 1.2 ± 0.032
GACGAAGGT | 1.01 ± 0.052
GACGAATCAG | 0.97 ± 0.018
GACGACGGGT | 1.27 ± 0.041
GACGACGTGT | 1.43 ± 0.35
GACGACTTGA | 1.02 ± 0.042
GACGCACGAA | 1.58 ± 0.057
GACGCGGTTC | 5.13 ± 0.77
GACGCTAGGG | 1 ± 0.052
GACGGAGACC | 1.11 ± 0.027
GACGGAGTTG | 1.01 ± 0.026
GACGGATGTG | 0.986 ± 0.032
GACGGCGTTC | 1.008 ± 0.0058
GACGGCTGCT | 1.01 ± 0.0042
GACGGCTGGA | 1.007 ± 0.0029
GACGGCTGTA | 0.991 ± 0.015
GACGGGAAAA | 1.07 ± 0.14
GACGGGAGCT | 1.06 ± 0.021
GACGGGCAAG | 1.02 ± 0.053
GACGGGCCGT | 1.01 ± 0.021
GACGGGCGGA | 1.019 ± 0.0024
GACGGGGAGG | 0.9995 ± 0.0092

Sequence | switch fluorescence ratio
GACGGGGCGT | 0.989 ± 0.013
GACGGGGTAG | 1 ± 0.048
GACGGTCATG | 0.995 ± 0.018
GACGGTGCAT | 1.33 ± 0.084
GACGGTTGAG | 1.025 ± 0.0057
GACGGTTTAC | 1.65 ± 0.023
GACGTAACCT | 1.5 ± 0.032
GACGTAGT | 1.01 ± 0.022
GACGTATATT | 1.08 ± 0.0067
GACGTGAAGG | 1.026 ± 0.0055
GACGTGAGGA | 0.989 ± 0.024
GACGTGAGGT | 1.017 ± 0.0012
GACGTGTCAA | 1.03 ± 0.019
GACGTGTGAG | 0.993 ± 0.034
GACGTTTAAG | 0.977 ± 0.029
GACTACGGTT | 1.006 ± 0.0095
GACTATTATG | 1 ± 0.019
GACTCGGGCG | 1.014 ± 0.0082
GACTGCGGAG | 1 ± 0.026
GACTGCTTGG | 0.9518 ± 0.0063
GACTGGAAGG | 1.01 ± 0.011
GACTGGATTG | 0.996 ± 0.06
GACTGGGCAG | 1.01 ± 0.011
GACTGGGGAC | 1.01 ± 0.012
GACTGGTCGA | 0.996 ± 0.053

Sequence | switch fluorescence ratio
GACTGTCGAG | 0.991 ± 0.027
GACTTATTTT | 0.9849 ± 0.0014
GACTTGAGTT | 0.9971 ± 0.0091
GACTTGTGGG | 1.02 ± 0.084
GACTTTGGTG | 1.01 ± 0.026
GACTTTTCCT | 1.3 ± 0.41
GAGAAATACG | 1.47 ± 0.08
GAGAAATGCG | 1.03 ± 0.012
GAGAACGGTT | 1.03 ± 0.052
GAGAAGCAGT | 1 ± 0.024
GAGAAGGAGG | 1.01 ± 0.012
GAGAAGGGAT | 0.999 ± 0.022
GAGAATGAGG | 0.962 ± 0.0093
GAGAATTATG | 0.9933 ± 0.0023
GAGAATTGAA | 0.99 ± 0.014
GAGAATTTGT | 0.978 ± 0.033
GAGACAGCGC | 1.02 ± 0.062
GAGACAGGAT | 1.01 ± 0.04
GAGACATCGT | 0.986 ± 0.018
GAGACGGAAT | 1.06 ± 0.025
GAGACGGGGG | 1.02 ± 0.033
GAGACGTTGG | 0.985 ± 0.014
GAGACTTGGG | 1.03 ± 0.029
GAGAGAGGGT | 0.997 ± 0.014
GAGAGAGTGA | 0.963 ± 0.025

Sequence | switch fluorescence ratio
GAGAGATGTT | 0.999 ± 0.021
GAGAGATTTT | 0.997 ± 0.034
GAGAGCAAGT | 1.14 ± 0.034
GAGAGCGGTG | 0.9953 ± 0.0075
GAGAGGAAAT | 1.004 ± 0.0059
GAGAGGATGG | 0.984 ± 0.042
GAGAGGCACA | 1.02 ± 0.051
GAGAGGGGGT | 0.998 ± 0.05
GAGAGGGTAG | 0.9801 ± 0.0095
GAGAGGGTCA | 0.98 ± 0.025
GAGAGGTTTT | 1 ± 0.029
GAGAGTATAA | 0.99 ± 0.022
GAGAGTATGG | 0.982 ± 0.049
GAGAGTGACA | 1.01 ± 0.062
GAGAGTGGCA | 0.988 ± 0.031
GAGAGTTGTG | 0.988 ± 0.034
GAGATAGGTT | 1.03 ± 0.073
GAGATATATG | 0.983 ± 0.052
GAGATCTAGT | 1.01 ± 0.019
GAGATGAAAC | 0.976 ± 0.011
GAGATGTGGT | 0.985 ± 0.031
GAGATGTTTT | 0.988 ± 0.043
GAGATTATGG | 0.966 ± 0.022
GAGATTGAGG | 1.02 ± 0.038
GAGATTGGAA | 1.002 ± 0.0025

Sequence | switch fluorescence ratio
GAGATTTAGT | 0.973 ± 0.049
GAGCAAAAGG | 1.004 ± 0.0058
GAGCAAGGTT | 1.24 ± 0.2
GAGCAGCATT | 1.05 ± 0.014
GAGCCAGATT | 1.0095 ± 0.00059
GAGCCAGGCA | 0.974 ± 0.042
GAGCCCGCAG | 1.6 ± 0.038
GAGCCCTTAT | 0.9812 ± 0.0078
GAGCCTTATG | 0.994 ± 0.033
GAGCGAATAG | 1.46 ± 0.055
GAGCGGGTAC | 1.41 ± 0.03
GAGCGGGTTG | 0.9835 ± 0.0056
GAGCGTAAGT | 0.958 ± 0.03
GAGCTAACGG | 1.011 ± 0.0073
GAGCTAAGCT | 0.981 ± 0.018
GAGCTAAGGA | 0.981 ± 0.029
GAGCTGGAGG | 1 ± 0.017
GAGCTTCTAG | 1.03 ± 0.015
GAGCTTGCTG | 0.9992 ± 0.0083
GAGGAACCGG | 1.05 ± 0.021
GAGGAAGGGG | 1 ± 0.016
GAGGAATCGA | 1.04 ± 0.065
GAGGAATTTA | 1.02 ± 0.028
GAGGAGCGTT | 0.9804 ± 0.007
GAGGAGGATG | 0.987 ± 0.013

Sequence | switch fluorescence ratio
GAGGAGGGAC | 0.989 ± 0.05
GAGGAGGGTA | 0.966 ± 0.086
GAGGAGTAGG | 1.08 ± 0.036
GAGGAGTGGT | 0.984 ± 0.015
GAGGATTTAA | 1 ± 0.03
GAGGCAAGG | 1.341 ± 0.0038
GAGGCAGTTA | 1.11 ± 0.046
GAGGCATTGC | 1.65 ± 0.24
GAGGCCCATT | 1 ± 0.043
GAGGCCGATT | 1.02 ± 0.011
GAGGCGACGT | 0.963 ± 0.027
GAGGCGGAGG | 1 ± 0.028
GAGGCGGCAT | 1.04 ± 0.0066
GAGGCGGCGG | 1.067 ± 0.0051
GAGGCGGTGG | 1.009 ± 0.005
GAGGCTGGGA | 0.988 ± 0.032
GAGGCTGGGC | 0.973 ± 0.053
GAGGCTTCTA | 1.02 ± 0.036
GAGGGAAGAG | 1.01 ± 0.021
GAGGGAAGGG | 0.994 ± 0.011
GAGGGAGGGA | 1.03 ± 0.059
GAGGGAGTCG | 1.01 ± 0.022
GAGGGAGTTT | 0.987 ± 0.025
GAGGGCGCTG | 0.973 ± 0.011
GAGGGCTAGG | 0.997 ± 0.023

From the supplement of paper PMC10126150
